{"source": "paper doi:10.1101/2023.07.24.550339", "target": "Rac1BD (MiniBAR70-208), recombinant (human) (UniProt O15063)", "assay": "SEC-MALS"}
{"substance": "Rac1Q61L, recombinant (from UniProt P63000 1-192) (natural protein)", "values": [{"measurement": "stoichiometry N (Rac1 per Rac1BD homodimer)", "result": 2}]}
